# Laboratory results as given in patent publication US20060257938A1, “Method of screening for drugs that block ligand binding to a lipid binding protein” (priority 2005, published 2006).
# What was measured:
# Format in all cases: binding
# Settings in all cases: response relative to ADIFAB2
# [1] = Probe fluorescence ratio response to arachidonic acid relative to ADIFAB2
# Outline: (§1)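 Fluorescently labeled rat intestinal FABP variants were read at two emission wavelengths, near the unbound maximum (about 420 to 480 nm) and the FFA-bound maximum (about 495 to 580 nm). R = Fλ1/Fλ2 after subtracting probe-free intensity; ΔR = R+agent − R0, normalized to ADIFAB2 (rI-FABP-L72A).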
# [2] = Probe fluorescence ratio response to linolenic acid relative to ADIFAB2
# Outline: as §1
# [3] = Probe fluorescence ratio response to linoleic acid relative to ADIFAB2
# Outline: as §1
# [4] = Probe fluorescence ratio response to oleic acid relative to ADIFAB2
# Outline: as §1
# [5] = Probe fluorescence ratio response to palmitic acid relative to ADIFAB2
# Outline: as §1
Molecule,DR/DR AA ([1]; arachidonic acid),DR/DR LNA [2],DR/DR LA [3],DR/DR OA [4],DR/DR PA [5],DR/DR AA ([1]; Arachidonic acid)
"102S, 72A (protein, listed as Rattus norvegicus, PEPTIDE (1)...(131) wild-type rat intestinal fatty acid binding protein) AFDGTWKVDRNENYEKFMEKMGINVVKRKLGAHDNLKLTITQEGNKFTVKESSNFRNIDVVFELGVDFAYSAADGTELTGTWTMEGNKLVGKFKRVDNGKESIAVREISGNELIQTYTYEGVEAKRIFKKE",0.39,0.43,0.45,0.43,0.18,–
"49K1, 72A (protein, listed as Rattus norvegicus, PEPTIDE (1)...(131) wild-type rat intestinal fatty acid binding protein) AFDGTWKVDRNENYEKFMEKMGINVVKRKLGAHDNLKLTITQEGNKFTKKESSNFRNIDVVFELGVDFAYSAADGTELTGTWTMEGNKLVGKFKRVDNGKELIAVREISGNELIQTYTYEGVEAKRIFKKE",–,1.68,1.71,1.51,0.80,1.64
"49L1, 72A (protein, listed as Rattus norvegicus, PEPTIDE (1)...(131) wild-type rat intestinal fatty acid binding protein) AFDGTWKVDRNENYEKFMEKMGINVVKRKLGAHDNLKLTITQEGNKFTLKESSNFRNIDVVFELGVDFAYSAADGTELTGTWTMEGNKLVGKFKRVDNGKELIAVREISGNELIQTYTYEGVEAKRIFKKE",–,1.77,1.81,1.67,1.00,1.76
"47S1, L72A (protein, listed as Rattus norvegicus, PEPTIDE (1)...(131) wild-type rat intestinal fatty acid binding protein) AFDGTWKVDRNENYEKFMEKMGINVVKRKLGAHDNLKLTITQEGNKSTVKESSNFRNIDVVFELGVDFAYSAADGTELTGTWTMEGNKLVGKFKRVDNGKELIAVREISGNELIQTYTYEGVEAKRIFKKE",–,0.69,0.66,0.64,0.34,0.61
"49A1, 72A (protein, listed as Rattus norvegicus, PEPTIDE (1)...(131) wild-type rat intestinal fatty acid binding protein) AFDGTWKVDRNENYEKFMEKMGINVVKRKLGAHDNLKLTITQEGNKFTAKESSNFRNIDVVFELGVDFAYSAADGTELTGTWTMEGNKLVGKFKRVDNGKELIAVREISGNELIQTYTYEGVEAKRIFKKE",–,1.68,1.72,1.60,0.79,1.72
"49H1, 72A (protein, listed as Rattus norvegicus, PEPTIDE (1)...(131) wild-type rat intestinal fatty acid binding protein) AFDGTWKVDRNENYEKFMEKMGINVVKRKLGAHDNLKLTITQEGNKFTHKESSNFRNIDVVFELGVDFAYSAADGTELTGTWTMEGNKLVGKFKRVDNGKELIAVREISGNELIQTYTYEGVEAKRIFKKE",–,1.54,1.58,1.39,0.75,1.47
"49M1, 72A (protein, listed as Rattus norvegicus, PEPTIDE (1)...(131) wild-type rat intestinal fatty acid binding protein) AFDGTWKVDRNENYEKFMEKMGINVVKRKLGAHDNLKLTITQEGNKFTMKESSNFRNIDVVFELGVDFAYSAADGTELTGTWTMEGNKLVGKFKRVDNGKELIAVREISGNELIQTYTYEGVEAKRIFKKE",–,1.37,1.37,1.30,0.94,1.36
"49D1, 72A (protein, listed as Rattus norvegicus, PEPTIDE (1)...(131) wild-type rat intestinal fatty acid binding protein) AFDGTWKVDRNENYEKFMEKMGINVVKRKLGAHDNLKLTITQEGNKFTDKESSNFRNIDVVFELGVDFAYSAADGTELTGTWTMEGNKLVGKFKRVDNGKELIAVREISGNELIQTYTYEGVEAKRIFKKE",–,0.30,0.32,0.32,0.16,0.31
"47R3, L72A (protein, listed as Rattus norvegicus, PEPTIDE (1)...(131) wild-type rat intestinal fatty acid binding protein) AFDGTWKVDRNENYEKFMEKMGINVVKRKLGAHDNLKLTITQEGNKRTVKESSNFRNIDVVFELGVDFAYSAADGTELTGTWTMEGNKLVGKFKRVDNGKELIAVREISGNELIQTYTYEGVEAKRIFKKE",–,0.61,0.64,0.62,0.30,0.56
"49C1, 72A (protein, listed as Rattus norvegicus, PEPTIDE (1)...(131) wild-type rat intestinal fatty acid binding protein) AFDGTWKVDRNENYEKFMEKMGINVVKRKLGAHDNLKLTITQEGNKFTCKESSNFRNIDVVFELGVDFAYSAADGTELTGTWTMEGNKLVGKFKRVDNGKELIAVREISGNELIQTYTYEGVEAKRIFKKE",–,−0.18,−0.21,−0.20,−0.18,−0.13
"49F1, 72A (protein, listed as Rattus norvegicus, PEPTIDE (1)...(131) wild-type rat intestinal fatty acid binding protein) AFDGTWKVDRNENYEKFMEKMGINVVKRKLGAHDNLKLTITQEGNKFTFKESSNFRNIDVVFELGVDFAYSAADGTELTGTWTMEGNKLVGKFKRVDNGKELIAVREISGNELIQTYTYEGVEAKRIFKKE",–,1.18,1.14,1.14,0.75,1.18
"47V3, L72A (protein, listed as Rattus norvegicus, PEPTIDE (1)...(131) wild-type rat intestinal fatty acid binding protein) AFDGTWKVDRNENYEKFMEKMGINVVKRKLGAHDNLKLTITQEGNKVTVKESSNFRNIDVVFELGVDFAYSAADGTELTGTWTMEGNKLVGKFKRVDNGKELIAVREISGNELIQTYTYEGVEAKRIFKKE",–,1.01,1.04,1.01,0.78,1.00
"47T1, L72A (protein, listed as Rattus norvegicus, PEPTIDE (1)...(131) wild-type rat intestinal fatty acid binding protein) AFDGTWKVDRNENYEKFMEKMGINVVKRKLGAHDNLKLTITQEGNKTTVKESSNFRNIDVVFELGVDFAYSAADGTELTGTWTMEGNKLVGKFKRVDNGKELIAVREISGNELIQTYTYEGVEAKRIFKKE",–,0.74,0.77,0.74,0.46,0.68
"47Y2, L72A (protein, listed as Rattus norvegicus, PEPTIDE (1)...(131) wild-type rat intestinal fatty acid binding protein) AFDGTWKVDRNENYEKFMEKMGINVVKRKLGAHDNLKLTITQEGNKYTVKESSNFRNIDVVFELGVDFAYSAADGTELTGTWTMEGNKLVGKFKRVDNGKELIAVREISGNELIQTYTYEGVEAKRIFKKE",–,1.40,1.40,1.42,1.17,1.37
"102T, 72A (protein, listed as Rattus norvegicus, PEPTIDE (1)...(131) wild-type rat intestinal fatty acid binding protein) AFDGTWKVDRNENYEKFMEKMGINVVKRKLGAHDNLKLTITQEGNKFTVKESSNFRNIDVVFELGVDFAYSAADGTELTGTWTMEGNKLVGKFKRVDNGKETIAVREISGNELIQTYTYEGVEAKRIFKKE",0.21,0.24,0.26,0.26,0.12,–
"49G1, 72A (protein, listed as Rattus norvegicus, PEPTIDE (1)...(131) wild-type rat intestinal fatty acid binding protein) AFDGTWKVDRNENYEKFMEKMGINVVKRKLGAHDNLKLTITQEGNKFTGKESSNFRNIDVVFELGVDFAYSAADGTELTGTWTMEGNKLVGKFKRVDNGKELIAVREISGNELIQTYTYEGVEAKRIFKKE",–,1.25,1.29,1.15,0.64,1.26
"49I1, 72A (protein, listed as Rattus norvegicus, PEPTIDE (1)...(131) wild-type rat intestinal fatty acid binding protein) AFDGTWKVDRNENYEKFMEKMGINVVKRKLGAHDNLKLTITQEGNKFTIKESSNFRNIDVVFELGVDFAYSAADGTELTGTWTMEGNKLVGKFKRVDNGKELIAVREISGNELIQTYTYEGVEAKRIFKKE",–,1.82,1.84,1.80,1.16,1.80
